Results published in the DeepSol protein solubility set.

Test: soluble on expression in E. coli; label from the status in PepcDB or PDB records

| Sequence | soluble on expression in E. coli |
| --- | --- |
| MGSDKIHHHHHHMTKARKVLVSALCFTALIGEAAVGREQVVLKPSGQWNINYADESCQLARTFGVGDQKTLVQFERFGPENGFALMIVSPLLKFQENFRAVPNRMLHPTKRQYLDTVFQFLPGGEPYKQPGIPAMDAASRQPTLMAFLSLEGPRKDAAPTATGTASASEDRKLTNEERLALEKATNALLVEQPFNDPIRFELGSLAQPFATLAACTDDLVRSWGLQTDPEHAAVNPPKPIGSPSEWFDDKKLAERVWSKRENAIIYFRMIVSDKGAPESCVIQDSSQTTELRDLSCRALMGKARFTPGTNAAGQSVRSVYRGAVRYFTSRN | not soluble |
| MSLRIEYNYRYYLTENEYKQYHIQLKGFIKKYVATKLADVGEVIHFAQAQQRQGRYVSLYLSYEAAKYFNHVMCTHSLAKDDIYAVAYSFEKAESINSTYEHQTSYVSKHHFSFVESSEVMMTNIKRVQQAIVEGETYQVNYTARLTDNIYYPISTLYERLTQFSNGNYTALLQTDEIQVASISPELFFQKGQFNNVDNVIISKPMKGTMPRGKTEAEDQQYYKTLQTSSKDRAENVMIVDLLRNDIGRISQSGSIKVYKLFFIEAYKTVFQMTSMVSGTLKTNTDLTQILTSLFPCGSITGAPKLNTMKYIKQFESSPRGIYCGAIGLLLPTEDDKMIFNIPIRTIEYKYGQAIYGVGAGITIDSKPKDEVNEFYAKTKILEMLEGHHHHHH | soluble |
| MGSDKIHHHHHHMLVVPAIDLFRGKVARMIKGRKENTIFYEKDPVELVEKLIEEGFTLIHVVDLSNAIENSGENLPVLEKLSEFAEHIQIGGGIRSLDYAEKLRKLGYRRQIVSSKVLEDPSFLKSLREIDVEPVFSLDTRGGRVAFKGWLAEEEIDPVSLLKRLKEYGLEEIVHTEIEKDGTLQEHDFSLTKKIAIEAEVKVLAAGGISSENSLKTAQKVHTETNGLLKGVIVGRAFLEGILTVEVMKRYAR | not soluble |
| SAAANPWDPASAPNGAGLVLGHFIASGMVNQEMLNMSKKTVSCFVNFTRLQQITNIQAEIYQKNLEIELLKLEKDTADVVHPFFLAQKCHTLQSMNNHLEAVLKEKRSLRQRLLKPMCQENLPIEAVYHRYMVHLLELAVTFIERLETHLETIRNIPHLAANLKKMNQALAKMDILVTETEELAENILKWRKQQNEVSSCIPKILAEESYLYKHDIIMPPLPFTSKVHVQTINAK | soluble |
| MNGYQITFFTQQDRHHAGKPLADWLMHLAAEMGLRGATLIPGSEGMGHDKRFHSVHFFELSDQLLEVVMVVSEEEADQLFARLRAEGVRLFYVKVAAEFGIMD | not soluble |
| MNKNLHPIFAKRIQQVLDENGWSMADLSRRVMLSHTSVRKWASGTSVASGERLKRLSAVTGRPEYWFFMEPGDESEGERAEPKPRVLDEKEETLLSLFNQLPEAEKLRVILHTKAVLQEMDLLKNNVFDLINDLKK | not soluble |
| MKILVTGTEGYLGSLLPSLLIAKGHEVSGLDTGFYKVGWLYNGTNITAKTLNKDIRNIIPEDLEGVDAIVHMAELSNDPAGQLAPHITYEINHLGSVHLANLAKRMGVRRFLYMSSCSVYGVASEGDVTEESPVNPQTAYAECKTLVERDIKPLADDDFSPTFMRNATAFGASPRMRFDIVLNNLSGLAWTTKEIKMTSDGTPWRPLVHALDICQAIICALEAPRDIVHNQVFNVGDTANNYRVKEIAEIIADTFPSCKLTFGNNGSDNRSYRVSFEKINTVLPGFKCEWNAQTGAKQLFDLFSQIDMTEDTFLFRGFTRLKQLEYLIRTQQIDQNFFWAKCDNVVV | not soluble |
| MESSTDGQVVPQEVLNLPLEKYHEEADDYLDHLLDSLEELSEAHPDCIPDVELSHGVMTLEIPAFGTYVINKQPPNKQIWLASPLSGPNRFDLLNGEWVSLRNGTKLTDILTEEVEKAISKSQ | soluble |
| MSIGVVLAKITAEFPDVTVSKIRYLESEGLITPQRTSTGYRRFTQDDVERLRYILVTQRDNYLPLKVIREQLEAMDSGAVTPISRGSDNAPLISPESFRTSVVTRLSDSDVAARAQVSESEVSELAEAGLIRPDSSGFFTADDVQVVSVAVQLKEFGFDVRHLKSLRNLASRHADLISRATTPVARSQSESARQRAEEMSQQLSALVVSLNATMLRSMLRDELNR | not soluble |
| GAHMSVIKPEMKIKLCMRGTVNGHNFVIEGEGKGNPYEGTQILDLNVTEGAPLPFAYDILTTVFQYGNRAFTKYPADIQDYFKQTFPEGYHWERSMTYEDQGICTATSNISMRGDCFFYDIRFDGTNFPPNGPVMQKKTLKWEPSTEKMYVEDGVLKGDVNMRLLLEGGGHYRCDFKTTYKAKKEVRLPDAHKIDHRIEILKHDKDYNKVKLYENAVARYSMLPSQAK | soluble |
| MGSDKIHHHHHHLIKSIFNKLFNLRENNPIERPKSFSATDLGKPLAISPKNITQQESISANVVYVDLSALFYSLLFPARVNDAGGIANNLERRVMAEIEHALASPQVIAEKVLKLPSKVLELDRKLADPQFDIKALLALIERDPLLSVEVLKLCNSPAFKRSDRDITNLQQALVQLGREQLRKFVTTCLVREMLDIKPIYFRRFGAEIWRHSMQVAFLASELSDEDQDTAFLLGLLHDVGKLAIFKMLLDAFVQAEPGEQPNSGLFRQVMTTKSLTLSSLLAKHWQLPNTFETELDRLASVNSRPQAGLAAVVWRANVISEISMLHQAGQLSPEILANLLQQVNLEQTQFDGLHQKLLQF | not soluble |
| SLSVVAPAVYVGTWHKYNCGSIAGRWFDLTTFDDERDFFAACRALHQDEADPELMFQDYEGFPGNMASECHINWAWVEGFRQARDEGCEEAYRLWVEDTGETDFDTFRDAWWGEADSEEAFAVEFASDTGLLADVPETVALYFDYEAYARDLFLDSFTFIDGHVFRR | soluble |
| MAHHHHHHSLRGIIKRLNDDGFGILYNKILVPFSAPGDEVEVLKTEKQKRAKIATEWRLLRSSPIRVGARCKVFGKCGGCILQHINYNSQLEFKKEKLRKILGREVEIIPSPRIFGHRNRIDLAVTVNAIGFREKGKWWSVVDVEECPVFGKTSKKAIERLREYIEEEKVSTWKIREDSGFLRYMVLREGKFTGEIMVNFVTKEGELPDPTSYFDFADSIYWSINRSKSDVSYGDIEKYWGKEFIMEELDGVKYLIHPNSFFQTNSYQAVNLVKTVEKFVEGEKVVDMYSGVGTFGVYLAKKGMKVVGFDSNAFAIEMANKNAEINNVEAEFFVASDREVDIKGFDTVIVDPPRAGLHPKLVKRLNDHGPETIVYVSCNPKTFKVNIEQLNNYIIEELIALDMFPHTPHIELVGKLRRLVEG | soluble |
| MGSDKIHHHHHHVNPLLDSLQPYPFEKLRALFKDVTPNAGLAHISFGIGEPKHPTPALIRDAVVASLGGLSAYPATSGSPALRESIAKWVTQRYNLPPVDPATQVLPVSGSREALFSLAQTVLDPQKNAGGEPAIVLCPNPFYQIYEGAAILAGAQPYFVNSDPARNFACDYSAVPAEIWARTQLLYVCSPGNPTGAVLTLDDWRELFALSDRYGFVIASDECYSEIYFDEAKPPLGGLEAAHKLGRGFERLVMLSSLSKRSNVPGMRSGFVAGDAAILKDFLLYRTYHGAALSTVFQNASIAAWNDEAHVRENRAKYLQKFSTVTPMLAEVLDVRLPDAAFYLWADVSRTGLTDTVFAQRLYADYNVTVLPGSFLARTAHGVNPGRNFVRMALVADVDECTQGAQRIVDFCRALAG | not soluble |
| MSLTDSKYISIKGARVNNLKNIDVNIPRNKLVVITGLSGSGKSSLAFDTLYAEGQRRYVESLSSYARQFLGRMSKPECDFIKGIPPAIAIEQKVNSRNPRSTVGTSTEIYEYLRLLYARVGKTYSPVSGEEVKKHSIEDIVNCMLSYPEGTRYTVLTQIYLHDGRTLEQQLEIDRKQGFNRLEVNGEMVRIDEYAAGKEDVVYLLVDRMTAAKSKDAISRLTDSAETAMYEGDGMCMLRFYQPDGTTRLHTFSTKFEADGMTFEEPNDQMFSFNSPIGACPVCEGFGKVIGIDEHLVVPNRSLSVYDGAIVCWRGEKMGEWREELIHNAEKFNFPIFTPYYELTDEQRRVLWEGNQYFHGINDFFKMLEENQYKIQYRVMLARYRGKTLCPKCHGTRLKPEAGYVRVGGKNISELVDLPITELQKFFDSLTLNEHDQAVARRILTEINSRIRFLIDVGLGYLTLNRLSNSLSGGESQRINLATSLGSSLVGSLYILDEPSIGLHSRDTDRLVHVLRQLQQLGNTVVVVEHDEEIIRAADYIIDIGPNAGRLGGQVVYEGDMKDLKKGSNSYTVKYLLGEETIPVPEHRRPWNNYIEIKGARENNLKGVDARFPLNVMTVVTGVSGSGKSTLVRDIFYRALKRELDECSERPGEFVSIEGDLRNLRNVEFVDQNPIGKSSRSNPVTYIKAYDEIRKLWADQPLAKQMGYTAGHFSFNNEGGRCEECKGDGTITVEMQFMADLVLECESCHGKRFKADTLEVKFQDKNIYDILEMTVNQAIEFFTEHGQKKVVKKLIPLQDVGLGYIKLGQSSSTLSGGENQRVKLAYYLSQEKADPTLFIFDEPTTGLHFHDIRKLLDAFDALIRRGHSIVIIEHNMDVIKCADYVIDLGPEGGDKGGNIVATGTPEEVAACAASYTGQFLQEKLNHLEGHHHHHH | soluble |
| MSPFDYLHFALLLVAPLAVLIGCGGKKKPPPPKSASKMGPPPPAPAPPTAPEATPAAPAPDAAAAAPAEGEKKDGDKKSEKKDGDKKEEEKKDEEKKDGDKKEDDKKDEKKDEDKKDEKKDADEKKDEEKKDDKKDEKKDEKKDEKKEKSKKSKKSSKSKKSKKSKREKKDEDKKEDDKKEDDKKDDKKEDDKKDDEKKDDDKKDDEKKE | not soluble |
| MSLTPEKLPLHVLLAEDSVVNQKVALSMLGKLGCFPDVAANGREAIDAMRQKRYDLVFMDCQMPEIDGYEVTRRIRKDHSLLCSPDIPVVAMTANAMKGDREKCIDAGMDDFMAKPLKKSDFQAIFERYFPGLFVRESSKEAGAGALTTDDVFLIDDVLFRLQNDREIILIIIGQFLLEAALQITELQAAAAEHDTERVRILSHTIKGAAATVGGQELSRCAAIIEQGAKSGDLTGIDEHLRDLNASYLRFKERVEASGWCEEGGEGHHHHHH | soluble |
| MLFHDIHDRAVKALPQILDRLIADGYQFAGWNGRDFSVARAPSATAAATVTTGYAKSWAIVIGIDDYARWPKLEYAANDAQAIANTLTGPLGFPSSQVIVLKNAEATRNNILAAFHDRLGDGRAQTNDRVFVFFAGHGATRRLASGRDLGYIIPVDSDPEHLANDAIAMSDLQNIAESLQAKHVLFVMDACYSGLGLTRGGPSSSAYLRENARRIARQMLTAGGADQQVADSGPNGHSVFTWVVLQALAGKGDLNGDGLITGTELAAYVAPAVSAVSAQTPAFGSLPGSQGGEFVFQVPSGEEFLTADTAQLSAAAIALNGRVDAVRPAAVSLEHHHHHH | soluble |
| MGSSHHHHHHSSGLVPRGSHMRLAGILLHVTSLPSPYGIGDLGKEAYRFLDFLKECGFSLWQVLPLNPTSLEAGNSPYSSNSLFAGNYVLIDPEELLEEDLIKERDLKRFPLGEALYEVVYEYKKELLEKAFKNFRRFELLEDFLKEHSYWLRDYALYMAIKEEEGKEWYEWDEELKRREKEALKRVLNKLKGRFYFHVFVQFVFFKQWEKLRRYARERGISIVGDLPMYPSYSSADVWTNPELFKLDGDLKPLFVAGVPPDFFSKTGQLWGNPVYNWEEHEKEGFRWWIRRVLHNLKLFDFLRLDHFRGFEAYWEVPYGEETAVNGRWVKAPGKTLFKKLLSYFPKNPFIAEDLGFITDEVRYLRETFKIPGSRVIEFAFYDKESEHLPHNVEENNVYYTSTHDLPPIRGWFENLGEESRKRLFEYLGREIKEEKVNEELIRLVLISRAKFAIIQMQDLLNLGNEARMNYPGRPFGNWRWRIKEDYTQKKEFIKKLLGIYGREV | soluble |
